Results on five molecules are retold here after patent publication US11078465B2, “Alcohol dehydrogenase mutant and application thereof in synthesis of diaryl chiral alcohols” (Jiangnan University, priority 2018, dated 2021).

Holding throughout (assay type): biochemical
The test system of data set [1] is O=C(c1ccc(Cl)cc1)c1ccccn1. Kind of data set: Kinetic analysis of alcohol dehydrogenase mutant (CPMK reduction, NADPH absorption at 340 nm). The settings on record: substrate CPMK, pH 7.0, 30° C. The procedure:
Adopting a total reaction system of 200 μL, including: 1.0 mM NADPH, 1.0 mM substrate CPMK and sodium phosphate buffer (PBS, 100 mM, pH 7.0), fully and evenly mixing, maintaining at 30° C. for 2 min, adding an appropriate amount of enzyme solution, and detecting the change in light absorption at 340 nm.
The enzyme activity was calculated by the following formula: Enzyme activity (U)=EW×V×10^3/(6220×I);
in the formula, EW is the change in absorbance at 340 nm in 1 min; V is the volume of a reaction solution in mL; 6220 is the molar extinction coefficient of NADPH in L/mol·cm); and 1 is the optical path distance in cm. One activity unit (U) corresponds to the amount of enzyme required to catalyze the oxidation of 1 μmol NADPH per minute under the above conditions.
A column used for purification was a nickel affinity column HisTrap FF crude, and purification was achieved through affinity chromatography using a histidine tag on recombinant protein. The nickel column was equilibrated with a solution A first, a crude enzyme solution was loaded, a penetrating peak was further eluted off using the solution A, and after equilibrium, a solution B (20 mM sodium phosphate, 500 mM NaCl, and 1000 mM imidazole, pH 7.4) was used for gradient elution to elute off the recombinant protein bound to the nickel column, so as to obtain the recombinant alcohol dehydrogenase mutant. The purified protein was subjected to activity measurement (CPMK as substrate, and NADPH as coenzyme) and SDS-PAGE analysis. […] The purified alcohol dehydrogenase protein was then replaced into a Tris-HCl (100 mM, pH 7.0) buffer using a Hi Trap Desalting column (GE Healthcare).
The activity of KpADH at different substrate concentrations and coenzyme concentrations was determined, and a double reciprocal curve was made based on the reciprocal of activity and substrate concentration to calculate kinetic parameters.
Two mutants of S237A and S237C valuable for modification of asymmetric synthesis R- and S- are obtained by random mutation screening, and the two sites are used as templates for random mutation. […] It can be known by combining the data in Tables 2 and 3 that the 214 site of alcohol dehydrogenase is a site that is important for determining selectivity improvement and inversion.

Data set [2] can be described thus: Stereoselectivity (ee) of CPMK reduction, chiral liquid chromatography. The settings on record: product configuration in brackets. Summed up: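 Reaction mixture extracted with ethyl acetate, solvent evaporated, residue taken up in ethanol. Chiral LC and GC give conversion and ee, with ee computed from LC molar concentrations of (S)- and (R)-CPMA.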
Data set [3] can be described thus: Substrate specificity, specific activity. In a few lines:
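Reductions by alcohol dehydrogenase mutants run with 1.0 mM NADPH and 1.0 mM prochiral carbonyl substrate (e.g., CPMK) in 100 mM sodium phosphate, pH 7.0, at 30° C. Activity followed as absorbance change at 340 nm; 1 U oxidises 1 μmol NADPH per minute, calculated using ε 6220 L/mol·cm.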

Data set [4] is described as follows: Asymmetric reduction in 20 mL biocatalytic system, conversion.
Data set [5] is described as follows: Stereoselectivity on different substrates. The settings on record: configuration in brackets. Summed up: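 Reaction mixture extracted with ethyl acetate, dried organic phase redissolved in ethanol, then analysed by chiral liquid chromatography and gas chromatography. Values are transformation rate and ee, with ee from LC molar concentrations of (S)- and (R)-CPMA. Substrates were prochiral ketones reduced by alcohol dehydrogenase mutants.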

A short description of data set [6]: Stereoselectivity on different substrates. The settings on record: configuration in brackets. In a few lines:
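Alcohol dehydrogenase mutants reduced prochiral ketones, including CPMK, aryl pyridyl and diaryl ketones, acetophenones and keto esters. Reactions were extracted into ethyl acetate and redissolved in ethanol. Conversion and ee were determined by chiral liquid and gas chromatography, with ee calculated from (S)- and (R)-CPMA molar concentrations.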
The source holds these as a separate data set.

Data set [7] is described as follows: Kinetic analysis of alcohol dehydrogenase and mutants (NADPH oxidation, 340 nm, double reciprocal curve). The settings on record: substrate CPMK. Summed up: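 His-tagged recombinant KpADH (wild type or mutant) purified by nickel affinity, desalted into Tris-HCl pH 7.0. Activity measured at 30° C in 100 mM sodium phosphate pH 7.0 with 1.0 mM NADPH and 1.0 mM CPMK by 340 nm NADPH absorbance decrease; kinetic parameters from double reciprocal plots over varied substrate and coenzyme concentrations.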

For orientation: Km means the concentration of substrate that gives half-maximal velocity. As a reminder, the Vmax is the rate approached at saturating substrate. A word on the kcat: it is the maximal rate divided by the concentration of active sites. The kcat/Km is the turnover number divided by the Michaelis constant. “alcohol dehydrogenase KpADH (SEQ ID No. 2) mutant A269C/S237C (Vanderwaltozyma polyspora DSM 70294; A269C/S237C)”: in data set [1] (other: A269C/S237C), the Km came out at 1.56 ± 0.02 mM, the Vmax is 22.6 µM/min/mg, the kcat came out at 15.4 ± 0.86 s⁻¹ and the catalytic efficiency (kcat/Km) was found to be 9900 ± 360 M⁻¹ s⁻¹.
On to “alcohol dehydrogenase KpADH (SEQ ID No. 2) mutant L60F/S237C (Vanderwaltozyma polyspora DSM 70294; L60F/S237C)”, for which, in data set [1] (other: L60F/S237C), the Michaelis-Menten constant (Km) stood at 1.12 ± 0.02 mM, the Vmax was determined as 12.6 µM/min/mg, the kcat is 8.4 ± 0.23 s⁻¹ and the kcat/Km is 7500 ± 690 M⁻¹ s⁻¹.
For the molecule “alcohol dehydrogenase KpADH (SEQ ID No. 2) mutant S237A (Vanderwaltozyma polyspora DSM 70294; S237A)”, in data set [1] (other: S237A), the Km was determined as 0.58 ± 0.03 mM, the Vmax turned out to be 36.5 µM/min/mg, the kcat was 24.4 ± 1.26 s⁻¹ and the catalytic efficiency (kcat/Km) was found to be 42000 ± 2360 M⁻¹ s⁻¹.
As to “alcohol dehydrogenase KpADH (SEQ ID No. 2) mutant H249Y/S237C (Vanderwaltozyma polyspora DSM 70294; H249Y/S237C)”, in data set [1] (other: H249Y/S237C), the Km is listed as 0.98 ± 0.02 mM, the maximal velocity (Vmax) amounted to 16.5 µM/min/mg, the kcat amounted to 11 ± 0.83 s⁻¹ and the kcat/Km came to 11200 ± 980 M⁻¹ s⁻¹.

B1: E214Y/S237A: tyrosine for glutamate at position 214 and alanine for serine at position 237 of SEQ ID No. 2 (protein)
chain: MSVLISGASGYIAKHIVRVLLEQNYKVIGTVRSQDKADKLLKQYNNPNLSYEIVPEIANLDAFDDIFKKHGKEIKYVIHAASPVNFGAKDLEKDLVIPAINGTKNMFEAIKKYAPDTVERVVMTASYASIMTPHRQNDPTLTLDEETWNPVTEENAYENVFTAYCASKTFAEKEAWKFVKENSDAVKFKLTTIHPSFVFGPQNFDEDVTKKLNYTCEIINGLLHAPFDTKVEKTHFAQFIDVRDVAKTHVLGFQKDELINQRLLLCNGAFSQQDIVNVFNEDFPELKGQFPPEDKDTDLNKGVTGCKIDNEKTKKLLAFEFTPFHKTIHDTVYQILHKEGRV
modifications: Protein translated from synthetic DNA
Take B1: the e.e. in data set [2] is reported as 99.1 (R). Also, the specific activity was 0.26 U/mg in data set [3] (substrate [drawing 1]); 0.25 U/mg in data set [3] (substrate [drawing 2]); 2.25 U/mg in data set [3] (substrate [drawing 3]); 4.06 U/mg in data set [3] (substrate [drawing 4]); 14.48 U/mg in data set [3] (substrate [drawing 5]); 25.70 U/mg in data set [3] (substrate [drawing 6], 4-chlorophenacyl chloride). The specific activity turned out to be 22.02 U/mg in data set [3] (substrate [drawing 7]); 22.61 U/mg in data set [3] (substrate [drawing 8]); 7.74 U/mg in data set [3] (substrate [drawing 9], ethyl 4-chloro-3-oxobutanoate). Moreover, the Conversion rate in data set [4] (4-nitroacetophenone 10 mM, 1 h) is given as 32%; in data set [4] (4-nitroacetophenone 10 mM, 2 h) it was 48%; in data set [4] (4-nitroacetophenone 10 mM, 3 h), 60%; in data set [4] (4-nitroacetophenone 10 mM, 4 h) it was 85%; in data set [4] (4-nitroacetophenone 10 mM, 6 h) it was 95%; in data set [4] (4-nitroacetophenone 10 mM, 8 h), 99.8%. Further, the Conversion rate in data set [4] (4-nitroacetophenone 10 mM, 12 h) was >99.9%; in data set [4] (4-nitroacetophenone 10 mM, 24 h), >99.9%; in data set [4] (4-nitroacetophenone 20 mM, 1 h), 22%; in data set [4] (4-nitroacetophenone 20 mM, 2 h), 35.5%; in data set [4] (4-nitroacetophenone 20 mM, 3 h), 55.8%; in data set [4] (4-nitroacetophenone 20 mM, 4 h) it was 69.5%. Moreover, the Conversion rate is 90.4% in data set [4] (4-nitroacetophenone 20 mM, 6 h); 95.6% in data set [4] (4-nitroacetophenone 20 mM, 8 h); 99.2% in data set [4] (4-nitroacetophenone 20 mM, 12 h); 99.5% in data set [4] (4-nitroacetophenone 20 mM, 24 h); 10.5% in data set [4] (4-nitroacetophenone 50 mM, 1 h); 22.5% in data set [4] (4-nitroacetophenone 50 mM, 2 h). Also, the Conversion rate in data set [4] (4-nitroacetophenone 50 mM, 3 h) is 35.9%; in data set [4] (4-nitroacetophenone 50 mM, 4 h), 49.5%; in data set [4] (4-nitroacetophenone 50 mM, 6 h) it was 60.9%; in data set [4] (4-nitroacetophenone 50 mM, 8 h), 82.6%; in data set [4] (4-nitroacetophenone 50 mM, 12 h) it was 85.5%; in data set [4] (4-nitroacetophenone 50 mM, 24 h) it was 86.5%. Besides, the Conversion rate in data set [4] (CPMK 100 mM, 1 h) turned out to be 66%; in data set [4] (CPMK 100 mM, 2 h) it was 80%; in data set [4] (CPMK 100 mM, 3 h) it was 89.5%; in data set [4] (CPMK 100 mM, 4 h) it was 94%; in data set [4] (CPMK 100 mM, 6 h), 96.6%; in data set [4] (CPMK 100 mM, 8 h) it was 99.5%. The Conversion rate in data set [4] (CPMK 100 mM, 12 h) is listed as >99.9%; in data set [4] (CPMK 100 mM, 24 h), >99.9%; in data set [4] (CPMK 200 mM, 1 h), 45.5%; in data set [4] (CPMK 200 mM, 2 h) it was 65.5%; in data set [4] (CPMK 200 mM, 3 h), 75.9%; in data set [4] (CPMK 200 mM, 4 h), 88.8%. The Conversion rate is reported as 95.6% in data set [4] (CPMK 200 mM, 6 h); 99.1% in data set [4] (CPMK 200 mM, 8 h); 99.7% in data set [4] (CPMK 200 mM, 12 h); >99.9% in data set [4] (CPMK 200 mM, 24 h); 25.5% in data set [4] (CPMK 500 mM, 1 h); 33.5% in data set [4] (CPMK 500 mM, 2 h). Moreover, the Conversion rate in data set [4] (CPMK 500 mM, 3 h) is given as 45.8%; in data set [4] (CPMK 500 mM, 4 h), 59.9%; in data set [4] (CPMK 500 mM, 6 h), 77.9%; in data set [4] (CPMK 500 mM, 8 h) it was 90.2%; in data set [4] (CPMK 500 mM, 12 h), 95.7%; in data set [4] (CPMK 500 mM, 24 h), 99.5%. Besides, the “ee in asymmetric synthesis of (R)-CPMA” value in data set [4] (20 mL biocatalytic system, 30° C., pH 7.5) is 99.1%. In addition, in data set [4] (p-nitrobenzophenone), the “substrate concentration that could be afforded” value stood at 20 mM. Further, the “Stereoselectivity (ee)” value in data set [5] (substrate [drawing 13]) was 18.2 (R); in data set [5] (substrate [drawing 14], likely CPMK (values partly match Table 4)), 99.1 (R); in data set [5] (substrate [drawing 15]) it was 89.3 (S); in data set [5] (substrate [drawing 18]), 79.3 (S); in data set [6] (substrate [drawing 10], acetophenone), 32.1 (R); in data set [6] (substrate [drawing 11], 4-chloroacetophenone), 97.9 (R). Besides, the “Stereoselectivity (ee)” value is 61.6 (R) in data set [6] (substrate [drawing 12], 4-chlorobenzoyl chloride); 98.5 (S) in data set [6] (substrate [drawing 16], (4-bromophenyl)-(phenyl)-methanone); 99.2 (S) in data set [6] (substrate [drawing 17], p-nitrobenzophenone). The Kcat in data set [7] was determined as 15.80 ± 0.25 s⁻¹. Moreover, in data set [7], the Km turned out to be 620 ± 20 µM. The Vmax in data set [7] stood at 23.70 ± 0.37 µM/min/mg.
